Test in all cases: EMSA
Series [1] has as its system LSm2-LSm8 complex;Snu13 (Saccharomyces cerevisiae;Saccharomyces cerevisiae). The following applies: LSm titrated; Snu13 prebound; apparent; Hill 3.3; EMSA: 2 nM RNA, 10 mM K-HEPES pH 7.5, 100 mM KCl, 0.01% NP-40, 20 ug E. coli tRNA in 100 ul, on ice 60 min, 4% native gel 0.5X TBE 4 C; smFRET: 10 mM Tris-HCl …. A general note: Mobility shift assays separate free from complexed probe on a gel.

The subject of series [2] is Prp3/4 (Prp3-Prp4 complex);Snu13;Prp31;Sm protein complex (SmB, D1, D2, D3, E, F, G) (Saccharomyces cerevisiae;Saccharomyces cerevisiae;Saccharomyces cerevisiae;Saccharomyces cerevisiae). To be noted: Prp3/4 titrated; Snu13, Prp31, Sm prebound; apparent; Hill 1; EMSA: 2 nM RNA, 10 mM K-HEPES pH 7.5, 100 mM KCl, 0.01% NP-40, 20 ug E. coli tRNA in 100 ul, on ice 60 min, 4% native gel 0.5X TBE 4 C; smFRET: 10 mM Tris-HCl ….

Series [3] has as its system Prp3/4 (Prp3-Prp4 complex);Snu13;Prp31 (Saccharomyces cerevisiae;Saccharomyces cerevisiae;Saccharomyces cerevisiae). The following applies: Prp3/4 titrated; Snu13, Prp31 prebound; apparent; Hill 1.5; EMSA: 2 nM RNA, 10 mM K-HEPES pH 7.5, 100 mM KCl, 0.01% NP-40, 20 ug E. coli tRNA in 100 ul, on ice 60 min, 4% native gel 0.5X TBE 4 C; smFRET: 10 mM Tris-HCl ….
The subject of series [4] is Prp3/4 (Prp3-Prp4 complex);Snu13 (Saccharomyces cerevisiae;Saccharomyces cerevisiae). To be noted: Prp3/4 titrated; Snu13 prebound; apparent; Hill 3.4; EMSA: 2 nM RNA, 10 mM K-HEPES pH 7.5, 100 mM KCl, 0.01% NP-40, 20 ug E. coli tRNA in 100 ul, on ice 60 min, 4% native gel 0.5X TBE 4 C; smFRET: 10 mM Tris-HCl ….
In series [5] the test system is Prp31;Snu13 (Saccharomyces cerevisiae;Saccharomyces cerevisiae). The following applies: Prp31 titrated; Snu13 prebound; apparent; Hill 2.9; EMSA: 2 nM RNA, 10 mM K-HEPES pH 7.5, 100 mM KCl, 0.01% NP-40, 20 ug E. coli tRNA in 100 ul, on ice 60 min, 4% native gel 0.5X TBE 4 C; smFRET: 10 mM Tris-HCl ….
For series [6], the system named is Sm protein complex (SmB, D1, D2, D3, E, F, G);Snu13 (Saccharomyces cerevisiae;Saccharomyces cerevisiae). To be noted: Sm titrated; Snu13 prebound; apparent; Hill 2.2; EMSA: 2 nM RNA, 10 mM K-HEPES pH 7.5, 100 mM KCl, 0.01% NP-40, 20 ug E. coli tRNA in 100 ul, on ice 60 min, 4% native gel 0.5X TBE 4 C; smFRET: 10 mM Tris-HCl ….
Series [7] concerns Sm protein complex (SmB, D1, D2, D3, E, F, G);Snu13;Prp31 (Saccharomyces cerevisiae;Saccharomyces cerevisiae;Saccharomyces cerevisiae). The following applies: Sm titrated; Snu13, Prp31 prebound; apparent; Hill 2.3; EMSA: 2 nM RNA, 10 mM K-HEPES pH 7.5, 100 mM KCl, 0.01% NP-40, 20 ug E. coli tRNA in 100 ul, on ice 60 min, 4% native gel 0.5X TBE 4 C; smFRET: 10 mM Tris-HCl ….
Series [8] relates to LSm2-LSm8 complex;Snu13;Prp31;Sm protein complex (SmB, D1, D2, D3, E, F, G) (Saccharomyces cerevisiae;Saccharomyces cerevisiae;Saccharomyces cerevisiae;Saccharomyces cerevisiae). The following applies: LSm titrated; Snu13, Prp31, Sm prebound; apparent; Hill 1; text prints 152; EMSA: 2 nM RNA, 10 mM K-HEPES pH 7.5, 100 mM KCl, 0.01% NP-40, 20 ug E. coli tRNA in 100 ul, on ice 60 min, 4% native gel 0.5X TBE 4 C; smFRET: 10 mM Tris-HCl ….

For series [9], the system named is LSm2-LSm8 complex;Snu13;Prp31 (Saccharomyces cerevisiae;Saccharomyces cerevisiae;Saccharomyces cerevisiae). To be noted: LSm titrated; Snu13, Prp31 prebound; apparent; Hill 1; EMSA: 2 nM RNA, 10 mM K-HEPES pH 7.5, 100 mM KCl, 0.01% NP-40, 20 ug E. coli tRNA in 100 ul, on ice 60 min, 4% native gel 0.5X TBE 4 C; smFRET: 10 mM Tris-HCl ….
The test system of series [10] is Prp3/4 (Prp3-Prp4 complex);Snu13;Prp31;Sm protein complex (SmB, D1, D2, D3, E, F, G);LSm2-LSm8 complex (Saccharomyces cerevisiae;Saccharomyces cerevisiae;Saccharomyces cerevisiae;Saccharomyces cerevisiae;Saccharomyces cerevisiae). To be noted: EMSA: 2 nM RNA, 10 mM K-HEPES pH 7.5, 100 mM KCl, 0.01% NP-40, 20 ug E. coli tRNA in 100 ul, on ice 60 min, 4% native gel 0.5X TBE 4 C; smFRET: 10 mM Tris-HCl ….

This is an account of results in publication PMC4678811, “Assembly and dynamics of the U4/U6 di-snRNP by single-molecule FRET” (Nucleic Acids Research, 2015).

On to U4/U6 snRNA duplex (full length), for which the Kd in series [1] is 26 nM; in [2], 557 nM; in series [3], 417 nM; in series [4], 88 nM; in series [5] it was 50 nM; in series [6] it was 92 nM. Moreover, the Kd in series [7] came to 108 nM; in series [8] it was 154 nM; in series [9], 98 nM; in series [10], 20 nM.
